Laboratory results reported in patent US20100203559A1.
pKd: −log10 of the molar value.

How the values were obtained:
[1] = target: SNAP-25134-206 peptide (human); assay: SPR (BIAcore 3000), peptide amine-coupled to CM5, antibody as analyte, 1:1 fit
[2] = target: SNAP-25134-197 peptide (human); assay: as above
[3] = target: GAPDH (SiMa cell lysate) (human (SiMa cells)) (UniProt P04406); assay: ECL sandwich ELISA, SiMa lysate; capture G8795, detection 2275-PC-1; result of the pair
[4] = target: GAPDH (SiMa cell lysate) (human (SiMa cells)) (UniProt P04406); assay: ECL sandwich ELISA, SiMa lysate; capture MAB374, detection G9545; result of the pair
[5] = target: GAPDH (SiMa cell lysate) (human (SiMa cells)) (UniProt P04406); assay: ECL sandwich ELISA, SiMa lysate; capture MAB374, detection G8795; result of the pair
[6] = target: GAPDH (SiMa cell lysate) (human (SiMa cells)) (UniProt P04406); assay: ECL sandwich ELISA, SiMa lysate; capture MAB374, detection 2275-PC-1; result of the pair
[7] = target: syntaxin 1 (SiMa cell lysate) (human (SiMa cells)) (UniProt Q16623); assay: ECL sandwich ELISA, SiMa lysate; capture S0664, detection S1172-2; result of the pair
[8] = target: syntaxin 1 (SiMa cell lysate) (human (SiMa cells)) (UniProt Q16623); assay: ECL sandwich ELISA, SiMa lysate; capture S0664, detection S1172-1; result of the pair
[9] = target: syntaxin 2 (SiMa cell lysate) (human (SiMa cells)) (UniProt P32856); assay: ECL sandwich ELISA, SiMa lysate; capture MAB2936, detection AB5596; result of the pair
[10] = target: syntaxin 2 (SiMa cell lysate) (human (SiMa cells)) (UniProt P32856); assay: ECL sandwich ELISA, SiMa lysate; capture MAB2936, detection S5687; result of the pair

| Substance | pKd [1] | koff [1] [s⁻¹] | pKd [2] | koff [2] [s⁻¹] | kon [2] [M⁻¹ s⁻¹] | other results |
| --- | --- | --- | --- | --- | --- | --- |
| MC-6050 α-SNAP-25 mouse monoclonal antibody (Research & Diagnostic Antibodies) | 4.70 | 0.00607 | 9.30 | 0.000882 | 1.78e+06 | kon [1]: 306 M⁻¹ s⁻¹ |
| MC-6053 α-SNAP-25 mouse monoclonal antibody (Research & Diagnostic Antibodies) | 6.62 | 2.56e-05 | 9.29 | 0.00118 | 2.32e+06 | – |
| α-GAPDH mouse monoclonal antibody G8795 (Sigma) | – | – | – | – | – | Signal/Noise Ratio (lysate/buffer) [3]: 2.74 |
| α-GAPDH mouse monoclonal antibody MAB374 (Chemicon) | – | – | – | – | – | Signal/Noise Ratio (lysate/buffer) [4]: > 100; Signal/Noise Ratio (lysate/buffer) [5]: 0.89; Signal/Noise Ratio (lysate/buffer) [6]: 20 |
| α-Syntaxin 1A-HPC mouse monoclonal antibody S0664 (Sigma) | – | – | – | – | – | Signal/Noise Ratio (lysate/buffer) [7]: 1.21; Signal/Noise Ratio (lysate/buffer) [8]: 4.23 |
| α-human syntaxin 2 mouse monoclonal antibody MAB2936 (R & D Systems) | – | – | – | – | – | Signal/Noise Ratio (lysate/buffer) [9]: 1.2; Signal/Noise Ratio (lysate/buffer) [10]: 1.07 |
